Reference: patent US20240209096A1 (INVETX, published 2024)
Where a chain is given by its changes, count along the chain named. Names may count otherwise.

T1: canine FcRn (soluble large subunit p51 isoform X2 with 6xHis-tag, co-expressed with canine … (canine))
T1 construct: Heterodimer made by co-expression in CHO cells, purified on HISTRAP FF, >95% pure by SEC; Both entries hold a 19-residue signal peptide at the N-terminus that should be removed (residues 1-19); also called FcRn complex
T1 chain: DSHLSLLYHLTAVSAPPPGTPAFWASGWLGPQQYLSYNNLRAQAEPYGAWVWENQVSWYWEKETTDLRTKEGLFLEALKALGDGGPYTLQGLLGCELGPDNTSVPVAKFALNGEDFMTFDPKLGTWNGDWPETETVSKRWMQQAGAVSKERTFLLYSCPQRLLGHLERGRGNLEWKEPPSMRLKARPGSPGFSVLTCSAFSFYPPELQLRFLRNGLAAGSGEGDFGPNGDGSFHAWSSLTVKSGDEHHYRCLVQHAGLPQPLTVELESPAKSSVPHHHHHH
T1 b2m: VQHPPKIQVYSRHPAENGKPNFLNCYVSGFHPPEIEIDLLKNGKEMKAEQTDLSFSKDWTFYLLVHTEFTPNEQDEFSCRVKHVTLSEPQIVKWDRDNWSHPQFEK

B1: IgG with canine IgGB Fc variant L252M (antibody)
heavy: EVQLVESGGDLVAPSQSLSITCTVSGMSLTSNSISWVRQPPGRGLEWLGTIWSNGGTDYTDAVKGRFTISRDNAKNTVYLQMNSLRAEDTAMYYCAQIYYYDADYLHWYFDFWGQGTLVTVSSASTTAPSVFPLAPSCGSTSGSTVALACLVSGYFPEPVTVSWNSGSLTSGVHTFPSVLQSSGLYSLSSMVTVPSSRWPSETFTCNVAHPASKTKVDKPVPKRENGRVPRPPDCPKCPAPEAAGGPSVFIFPPKPKDTLMIARTPEVTCVVVDLDPEDPEVQISWFVDGKQMQTAKTQPREEQFNGTYRVVSVLPIGHQDWLKGKQFTCKVNNKALPSPIERTISKARGQAHQPSVYVLPPSREELSKNTVSLTCLIKDFFPPDIDVEWQSNGQQEPESKYRTTPPQLDEDGSYFLYSKLSVDKSRWQRGDTFICAVMHEALHNHYTQESLSHSPG
light: EIVMTQSPASLSASQEEKVTITCRASEGISNNLAWYQQKPGQAPKLLIHATSSLQTGVPSRFSGSGSGTDFTLTISSLQPEDFATYYCQQGYQFPLTFGQGTKVEIKRNDAQPAVYLFQPSPDQLHTGSASVVCLLNSFYPKDINVKWKVDGVIQDTGIQESVTEQDKDSTYSLSSTLTMSSTEYLSHELYSCEITHKSLPSTLIKSFQRSECQRVD
notes: Full chains; canine IgGB constant domain with MALA mutations; variable domains of WO 2023/97275
B2: IgG with canine IgGB Fc variant L252Y (antibody)
heavy: B1 heavy with M261Y
light: B1 light
notes: as for B1
B3: IgG with canine IgGB Fc variant L252Y, T286F (antibody)
heavy: B1 heavy with M261Y, T295F
light: B1 light
notes: as for B1
B4: IgG with canine IgGB Fc variant N434H, A426W (antibody)
heavy: B1 heavy with M261L, A437W, N445H
light: B1 light
notes: as for B1
B5: IgG with canine IgGB Fc variant N434H, A426Y (antibody)
heavy: B1 heavy with M261L, A437Y, N445H
light: B1 light
notes: as for B1
B6: IgG with canine IgGB Fc variant L252M, A426Y (antibody)
heavy: B1 heavy with A437Y
light: B1 light
notes: as for B1
B7: IgG with canine IgGB Fc variant L252M, A426H (antibody)
heavy: B1 heavy with A437H
light: B1 light
notes: as for B1
B8: IgG with canine IgGB Fc variant L252M, A426L (antibody)
heavy: B1 heavy with A437L
light: B1 light
notes: as for B1
B9: IgG with canine IgGB Fc variant N434H, T286F (antibody)
heavy: B1 heavy with M261L, T295F, N445H
light: B1 light
notes: as for B1
B10: IgG with canine IgGB Fc variant L252Y, A426L (antibody)
heavy: B1 heavy with M261Y, A437L
light: B1 light
notes: as for B1
B11: IgG with canine IgGB Fc variant L252Y, T286L (antibody)
heavy: B1 heavy with M261Y, T295L
light: B1 light
notes: as for B1
B12: IgG with canine IgGB Fc variant L252M, T286F (antibody)
heavy: B1 heavy with T295F
light: B1 light
notes: as for B1
B13: IgG with canine IgGB Fc variant N434H (antibody)
heavy: B1 heavy with M261L, N445H
light: B1 light
notes: as for B1
B14: IgG with canine IgGB Fc variant L252Y, T286W (antibody)
heavy: B1 heavy with M261Y, T295W
light: B1 light
notes: as for B1
B15: IgG with canine IgGB Fc variant L252M, T286Y (antibody)
heavy: B1 heavy with T295Y
light: B1 light
notes: as for B1
B16: IgG with canine IgGB Fc variant L252Y, T286Y (antibody)
heavy: B1 heavy with M261Y, T295Y
light: B1 light
notes: as for B1
B17: IgG with canine IgGB Fc variant L252M, T286W (antibody)
heavy: B1 heavy with T295W
light: B1 light
notes: as for B1
B18: IgG with canine IgGB Fc variant N434H, A426F (antibody)
heavy: B1 heavy with M261L, A437F, N445H
light: B1 light
notes: as for B1
B19: IgG with canine IgGB Fc variant L252M, T286L (antibody)
heavy: B1 heavy with T295L
light: B1 light
notes: as for B1
B20: IgG with canine IgGB Fc variant L252Y, A426H (antibody)
heavy: B1 heavy with M261Y, A437H
light: B1 light
notes: as for B1
B21: IgG with canine IgGB Fc variant N434H, A426L (antibody)
heavy: B1 heavy with M261L, A437L, N445H
light: B1 light
notes: as for B1

Biological target: T1, canine FcRn (soluble large subunit p51 …)
Assay: SPR, IgG on protein L chip, FcRn in flow, pH 5.9, 1:1 fit
Experimental: (§1) The canine FcRn binding experiments at pH 5.9 and pH 7.4 were completed on a BIACORE™ T200 instrument. A Series S Protein L Sensor chip (Cytiva, Cat. No. BR29205137) was used to capture the antibody variants via the kappa (κ) light chain. The canine variants were captured onto the protein L chip at a flow rate of 10 μL/min for 60 seconds. Approximately 250 RUs of the variants were captured. For the low pH binding condition, 1×PBX-P+ (Cytiva, Cat. No. 28995084) was adjusted to pH 5.9. The canine FcRn was flowed over the sensor chip at 30 μL/min for 120 seconds contact time and 600 seconds dissociation time. Regeneration of the flow cells was completed by flowing over 10 mM glycine, pH 1.7 at 30 μL/min for 30 seconds. The data were evaluated by the BIACORE™ T200 Evaluation software (version 3.2.1) by fitting to a 1:1 kinetic interaction model.

Row | Kd [nM] | koff [s⁻¹] | kon [M⁻¹ s⁻¹] | Binder
1 | 40.7 | 0.00335 | 82400 | B1
2 | 43.5 | 0.0491 | 1.13e+06 | B2
3 | 10.8 | 0.0193 | 1.79e+06 | B3
4 | 14.5 | 0.0406 | 2.79e+06 | B4
5 | 10.9 | 0.0252 | 2.31e+06 | B5
6 | 57.4 | 0.0581 | 1.01e+06 | B6
7 | 37 | 0.065 | 1.76e+06 | B7
8 | 102 | 0.111 | 1.09e+06 | B8
9 | 14.4 | 0.0361 | 2.52e+06 | B9
10 | 6.41 | 0.012 | 1.87e+06 | B10
11 | 18.2 | 0.0237 | 1.31e+06 | B11
12 | 71.8 | 0.0937 | 1.31e+06 | B12
13 | 55.3 | 0.097 | 1.75e+06 | B13
14 | 9.82 | 0.0203 | 2.07e+06 | B14
15 | 66.6 | 0.0822 | 1.24e+06 | B15
16 | 10.2 | 0.018 | 1.76e+06 | B16
17 | 64.5 | 0.0912 | 1.42e+06 | B17
18 | 11.8 | 0.0296 | 2.5e+06 | B18
19 | 90 | 0.111 | 1.23e+06 | B19
20 | 3.76 | 0.00598 | 1.59e+06 | B20
21 | 18.9 | 0.0492 | 2.61e+06 | B21

Biological target: T1, canine FcRn (soluble large subunit p51 …)
Assay: SPR, IgG on protein L chip, FcRn in flow, pH 5.9, kinetic data
Experimental: as §1

Row | Kd [nM] | koff [s⁻¹] | kon [M⁻¹ s⁻¹] | Binder
22 | 43.5 | 0.0491 | 1.13e+06 | B2
23 | 14.5 | 0.0406 | 2.79e+06 | B4
24 | 10.9 | 0.0252 | 2.31e+06 | B5
25 | 14.4 | 0.0361 | 2.52e+06 | B9
26 | 6.41 | 0.012 | 1.87e+06 | B10
27 | 18.2 | 0.0237 | 1.31e+06 | B11
28 | 55.3 | 0.097 | 1.75e+06 | B13
29 | 11.8 | 0.0296 | 2.5e+06 | B18
30 | 3.76 | 0.00598 | 1.59e+06 | B20
31 | 18.9 | 0.0492 | 2.61e+06 | B21

Biological target: T1, canine FcRn (soluble large subunit p51 …)
Assay: SPR, IgG on protein L chip, FcRn in flow, pH 7.4, steady state fit
Experimental: as §1
A subset of the Fc variants was tested for binding to canine FcRn at pH 7.4. For these experiments, 1×PBX-P+ (Cytiva, Cat. No. 28995084) was adjusted to pH 7.4. […] In addition, the pH 7.4 data were evaluated by the BIACORE™ T200 Evaluation software (version 3.2.1) by fitting to steady state affinity model. The kinetic binding data for the variants at pH 7.4 along with the binding data at pH 5.9 for these variants are shown in Table 7 below.

Row | Kd [nM] | Binder
32 | 4440 | B2
33 | 1790 | B4
34 | 1050 | B5
35 | 2370 | B9
36 | 713 | B10
37 | 2620 | B11
38 | 5400 | B13
39 | 1380 | B18
40 | 388 | B20
41 | 2030 | B21
